According to US20250296958A1, “GL[…] E[…]” (THE ADMINISTRATORS OF THE TULANE EDUCATIONAL FUND, priority 2022, published 2025):

Legend:
delta opioid receptor [1] = target: delta opioid receptor (UniProt P41143); experiment: PDSP receptor binding, selectivity against MOR
delta opioid receptor [2] = target: delta opioid receptor (UniProt P41143); experiment: PDSP receptor binding; log of Ki in M
delta opioid receptor [3] = target: delta opioid receptor (UniProt P41143); experiment: PDSP receptor binding

Question: ZH853 (peptide) was tested. Which del/mu (ratio of Ki at DOR to Ki at MOR) (delta opioid receptor [1]) did it give?
Answer: 291

Question: What about the Log Ki (delta opioid receptor [2]) of the same substance?
Answer: -6.57

Question: What about the Ki (delta opioid receptor [3]) of the same substance?
Answer: 271 nM
